The nature of the series: self-splicing fitness, log relative to wild type (ln ratio); higher = more splicing; Tetrahymena group I intron in knt gene, E. coli kanamycin selection, DiMSum; sequences stand for … in CUCUCU…GGAGGGAAAAGUUAUCAGGCAUGCACCUGGUAGCUAGUCUUUAAACCAAUAGAUUGCAUCGGUUUAAAAGGCAAGACCGUCAAAUUGCGGGAAAGGGGUCAACAGCCGUUCAGUACCAAGUCUCAGGGGAAACUUUGAGAUGGCCUUGCAAAGGGUAUGGUAAUAAGCUGACGGACAUGGUCCUAACCACGCAGCCAAGUCCUAAGUCAACAGAUCUUCUGUUGAUAUGGAUGCAGUUCACAGACUAAAUGUCGGUCGGGGAAGAUGUAUUCUUCUCAUAAGAUAUAGUCGGACCUCUCCUUAAUGGGAGCUAGCGGAUGAAGUGAUGCAACACUGGAGCCGCUGGGAACUAAUUUGUAUGCGAAAGUAUAUUGAUUAGUUUUGGAGUACUCGUGGUCG
The essentials: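 A randomised library covering all eight P1ex-region intron nucleotides was built with the intron in the knt kanamycin-resistance gene on pET-22b(+) and held in E. coli BL21(DE3). Cells were grown overnight at 37°C or 30°C on LB agar, with or without 25 μg/mL kanamycin, plus 100 μg/mL carbenicillin, 50 μM IPTG and 0.2% rhamnose, and pooled colonies were amplicon-sequenced on an Illumina HiSeq 2500. DiMSum fitness is the error-weighted combination of wild-type-normalised replicate fold changes, kanamycin versus none.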

± gives the uncertainty stated by the source.

As for UAUGAGCAAUAUUACGGUUA, the “self-splicing fitness (ln)” value (30 °C) was -1.76 ± 0.15 and the “self-splicing fitness (ln)” value (37 °C) turned out to be 0.43 ± 0.12.

With UAUCAGCAAUAUUACGUAAA, the “self-splicing fitness (ln)” value runs as follows: (30 °C) -0.89 ± 0.068; (37 °C) 0.233 ± 0.1.

With UGAGAGCAAUAUUACGUGCC, the “self-splicing fitness (ln)” value (37 °C) is -2.99 ± 0.43.

Take AUGCAGCAAUAUUACGCACC: the “self-splicing fitness (ln)” value reads like this: (30 °C) -1.11 ± 0.18; (37 °C) -0.696 ± 0.21.

On to GUGUAGCAAUAUUACGACUC, for which the “self-splicing fitness (ln)” value reads like this: (30 °C) -0.267 ± 0.15; (37 °C) -0.0849 ± 0.21.

Consider UGUCAGCAAUAUUACGGUAC, for which the “self-splicing fitness (ln)” value was -4.07 ± 0.46 (30 °C) and -1.38 ± 0.17 (37 °C).

AGGCAGCAAUAUUACGAACA: the “self-splicing fitness (ln)” value is -1.45 ± 0.11 (30 °C) and -0.167 ± 0.14 (37 °C).

Take ACACAGCAAUAUUACGCCUU: the “self-splicing fitness (ln)” value is, setting by setting: (30 °C) -1.62 ± 0.076; (37 °C) -0.434 ± 0.091.

Regarding AGUGAGCAAUAUUACGAUAA, the “self-splicing fitness (ln)” value is -4.08 ± 0.33 (30 °C) and -2.16 ± 0.25 (37 °C).

Consider ACGAAGCAAUAUUACGCGCU, for which the “self-splicing fitness (ln)” value (30 °C) is -1.01 ± 0.09 and the “self-splicing fitness (ln)” value (37 °C) came out at 0.163 ± 0.12.

For the sequence ACAAAGCAAUAUUACGUAGG, the “self-splicing fitness (ln)” value is -2.88 ± 0.1 (30 °C) and -1.55 ± 0.12 (37 °C).

As for UUGAAGCAAUAUUACGAUAC, the “self-splicing fitness (ln)” value is, setting by setting: (30 °C) -2.62 ± 0.2; (37 °C) -2.62 ± 0.26.

For the sequence UAGUAGCAAUAUUACGUUAC, the “self-splicing fitness (ln)” value (30 °C) is -3.78 ± 0.2 and the “self-splicing fitness (ln)” value (37 °C) is -2.97 ± 0.23.

As for GGCGAGCAAUAUUACGGGAA, the “self-splicing fitness (ln)” value (30 °C) is -2.55 ± 0.3 and the “self-splicing fitness (ln)” value (37 °C) was -1.74 ± 0.43.

Take CAUGAGCAAUAUUACGUUAA: the “self-splicing fitness (ln)” value reads like this: (30 °C) -3.17 ± 0.32; (37 °C) -2.29 ± 0.26.

As for GACGAGCAAUAUUACGGUAG, the “self-splicing fitness (ln)” value is -4.01 ± 0.36 (30 °C) and -2.18 ± 0.22 (37 °C).

Regarding AGAAAGCAAUAUUACGCCGU, the “self-splicing fitness (ln)” value by setting is: (30 °C) -0.929 ± 0.11; (37 °C) -0.341 ± 0.13.

Consider GACUAGCAAUAUUACGACUA, for which the “self-splicing fitness (ln)” value was -1.04 ± 0.16 (30 °C) and -0.443 ± 0.14 (37 °C).

In the case of AAUAAGCAAUAUUACGAUAG, the “self-splicing fitness (ln)” value is, setting by setting: (30 °C) -3.78 ± 0.32; (37 °C) -2.13 ± 0.24.

AUUAAGCAAUAUUACGUUAG: the “self-splicing fitness (ln)” value is -2.76 ± 0.23 (30 °C) and -3.12 ± 0.27 (37 °C).

For UUCGAGCAAUAUUACGGUCU, the “self-splicing fitness (ln)” value reads like this: (30 °C) -5 ± 0.38; (37 °C) -5.45 ± 0.36.

For the sequence GUUGAGCAAUAUUACGUACU, the “self-splicing fitness (ln)” value (30 °C) is -2.91 ± 0.25 and the “self-splicing fitness (ln)” value (37 °C) was -2.15 ± 0.2.

As for CUAAAGCAAUAUUACGAUAA, the “self-splicing fitness (ln)” value (30 °C) is -2.17 ± 0.14 and the “self-splicing fitness (ln)” value (37 °C) is -0.422 ± 0.12.

Regarding GCUAAGCAAUAUUACGUUGA, the “self-splicing fitness (ln)” value is, setting by setting: (30 °C) -1.97 ± 0.14; (37 °C) -0.945 ± 0.14.

Take AACAAGCAAUAUUACGUUUG: the “self-splicing fitness (ln)” value (30 °C) was -2.87 ± 0.096 and the “self-splicing fitness (ln)” value (37 °C) was -2.46 ± 0.12.

For GCGUAGCAAUAUUACGGAAG, the “self-splicing fitness (ln)” value is -3.56 ± 0.31 (30 °C) and -1.98 ± 0.33 (37 °C).

For UGUCAGCAAUAUUACGGACG, the “self-splicing fitness (ln)” value (30 °C) is -2.2 ± 0.15 and the “self-splicing fitness (ln)” value (37 °C) was -1.34 ± 0.18.

As to GACAAGCAAUAUUACGAGAC, the “self-splicing fitness (ln)” value (30 °C) is -2.95 ± 0.27 and the “self-splicing fitness (ln)” value (37 °C) is -2.29 ± 0.27.

In the case of ACCCAGCAAUAUUACGCUAG, the “self-splicing fitness (ln)” value runs as follows: (30 °C) -2.81 ± 0.1; (37 °C) -1.77 ± 0.12.

Consider GAUGAGCAAUAUUACGGCGG, for which the “self-splicing fitness (ln)” value reads like this: (30 °C) -3.43 ± 0.3; (37 °C) -1.88 ± 0.26.

Consider GUGCAGCAAUAUUACGGGGG, for which the “self-splicing fitness (ln)” value is, setting by setting: (30 °C) -4.19 ± 0.23; (37 °C) -2.58 ± 0.18.

Take AAGAAGCAAUAUUACGAACG: the “self-splicing fitness (ln)” value was -0.96 ± 0.11 (30 °C) and -0.286 ± 0.14 (37 °C).

On to UGGUAGCAAUAUUACGAAAA, for which the “self-splicing fitness (ln)” value by setting is: (30 °C) -2.14 ± 0.19; (37 °C) -0.612 ± 0.17.

In the case of CCCUAGCAAUAUUACGUGGG, the “self-splicing fitness (ln)” value runs as follows: (30 °C) -3.48 ± 0.1; (37 °C) -2.54 ± 0.14.

Take CGCAAGCAAUAUUACGGCGG: the “self-splicing fitness (ln)” value was -0.329 ± 0.073 (30 °C) and 0.31 ± 0.09 (37 °C).

Consider GUGUAGCAAUAUUACGUUAC, for which, for the setting “37 °C”, the “self-splicing fitness (ln)” value is -2.56 ± 0.35.

In the case of ACUGAGCAAUAUUACGUCGU, the “self-splicing fitness (ln)” value by setting is: (30 °C) -2.87 ± 0.16; (37 °C) -1.96 ± 0.14.

For GGGUAGCAAUAUUACGGUGA, the “self-splicing fitness (ln)” value runs as follows: (30 °C) -1.74 ± 0.19; (37 °C) 0.155 ± 0.16.

The values above are taken from the supplement of paper PMC7877785.
